Patent publication US20240425837A1 (Novo Nordisk, published 2024)
No end group written: not given here.

How the values were obtained:
Assay in all cases: ELISA, biotinylated 12-mer peptide on streptavidin, 2 ug/mL FLAG-tagged VHH, anti-FLAG-HRP
[1] = target: T1, FX activation peptide 12-mer … (SEQ ID NO:727) (human)
T1 sequence (peptide, C-terminally conjugated to biotin): LLDFNQTQPERG

[2] = target: T2, FX activation peptide 12-mer SVAQATSSSGEA (SEQ ID NO:693) (human)
T2 peptide: SVAQATSSSGEA-biotin
Method: (§1) To determine whether the binding epitope of the anti-FX VHH polypeptide designated “cmpd #1” are located inside the activation peptide (AP) of human FX (SEQ ID NO:2), an ELISA assay was setup. 41 unique 12-mer peptide fragments spanning the 52 residues of the activation peptide with one amino acid spacing were immobilized in microtiter plate wells followed by incubation with the VHH polypeptide to be tested, and detection of bound ligand was performed by addition of a secondary HRP-labelled antibody.
(§2) The peptides were C-terminally conjugated to biotin and 50 μL of 1 μg/mL peptide solution was used for immobilization in discrete wells of the microtiter plate which was pre-coated with 1 μg/mL streptavidin. Each well was washed with washing buffer (10 mM Tris, 150 mM NaCl, 2.5 mM CaCl₂, 0.05% Tween 20, pH 8.60) followed by addition of 50 μL of 2 μg/mL FLAG-tagged anti-FX VHH polypeptide or IgG antibody to be tested. After 1 hour non-bound VHH polypeptide was washed off using washing buffer.
(§3) Bound anti-FX activation peptide ligand was detected by first binding a HRP-labelled secondary antibody (for FLAG-tagged VHH polypeptide: Anti-FLAG mAb M2-Peroxidase (HRP) (Sigma Aldrich, US) for 1 hour, and then adding 100 μL TMB-1 ELISA substrate (Kem-En-Tec Diagnostics, Denmark).

[3] = target: T3, FX activation peptide 12-mer AQATSSSGEAPD (SEQ ID NO:695) (human)
T3 peptide: AQATSSSGEAPD-biotin
Method: as §1, §2, §3

[4] = target: T4, FX activation peptide 12-mer QATSSSGEAPDS (SEQ ID NO:696) (human)
T4 peptide: QATSSSGEAPDS-biotin
Method: as §1, §2, §3

[5] = target: T5, FX activation peptide 12-mer SSSGEAPDSITW (SEQ ID NO:699) (human)
T5 peptide: SSSGEAPDSITW-biotin
Method: as §1, §2, §3

[6] = target: T6, FX activation peptide 12-mer SSGEAPDSITWK (SEQ ID NO:700) (human)
T6 peptide: SSGEAPDSITWK-biotin
Method: as §1, §2, §3

[7] = target: T7, FX activation peptide 12-mer GEAPDSITWKPY (SEQ ID NO:702) (human)
T7 peptide: GEAPDSITWKPY-biotin
Method: as §1, §2, §3

[8] = target: T8, FX activation peptide 12-mer EAPDSITWKPYD (SEQ ID NO:703) (human)
T8 peptide: EAPDSITWKPYD-biotin
Method: as §1, §2, §3

[9] = target: T9, FX activation peptide 12-mer APDSITWKPYDA (SEQ ID NO:704) (human)
T9 peptide: APDSITWKPYDA-biotin
Method: as §1, §2, §3

[10] = target: T10, FX activation peptide 12-mer DSITWKPYDAAD (SEQ ID NO:706) (human)
T10 peptide: DSITWKPYDAAD-biotin
Method: as §1, §2, §3

[11] = target: T11, FX activation peptide 12-mer KPYDAADLDPTE (SEQ ID NO:711) (human)
T11 peptide: KPYDAADLDPTE-biotin
Method: as §1, §2, §3

[12] = target: T12, FX activation peptide 12-mer DAADLDPTENPF (SEQ ID NO:714) (human)
T12 peptide: DAADLDPTENPF-biotin
Method: as §1, §2, §3

[13] = target: T13, FX activation peptide 12-mer AADLDPTENPFD (SEQ ID NO:715) (human)
T13 peptide: AADLDPTENPFD-biotin
Method: as §1, §2, §3

[14] = target: T14, FX activation peptide 12-mer DLDPTENPFDLL (SEQ ID NO:717) (human)
T14 peptide: DLDPTENPFDLL-biotin
Method: as §1, §2, §3

[15] = target: T15, FX activation peptide 12-mer LDPTENPFDLLD (SEQ ID NO:718) (human)
T15 peptide: LDPTENPFDLLD-biotin
Method: as §1, §2, §3

[16] = target: T16, FX activation peptide 12-mer ENPFDLLDFNQT (SEQ ID NO:722) (human)
T16 peptide: ENPFDLLDFNQT-biotin
Method: as §1, §2, §3

[17] = target: T17, FX activation peptide 12-mer NPFDLLDFNQTQ (SEQ ID NO:723) (human)
T17 peptide: NPFDLLDFNQTQ-biotin
Method: as §1, §2, §3

[18] = target: T18, FX activation peptide 12-mer PFDLLDFNQTQP (SEQ ID NO:724) (human)
T18 peptide: PFDLLDFNQTQP-biotin
Method: as §1, §2, §3

[19] = target: T19, FX activation peptide 12-mer TQPERGDNNLTR (SEQ ID NO:733) (human)
T19 peptide: TQPERGDNNLTR-biotin
Method: as §1, §2, §3

B1: Cmpd #1 (monovalent anti-FX VHH polypeptide, VHH-1.1) (VHH)
VHH: EVQLVESGGGLVQPGGSLRLSCAASGSIGAFDAMGWYRQAPGKQRELVAGIMVSRGNTNYTDSVKGRFTISRDNAKNTVYLQMNSLKPEDTAVYYCKAVKRPGPGYLEVWGQGTLVTVSS
notes: no protractor; FLAG-tagged in the peptide ELISA
ELISA signal normalized relative to the background signal (fold of background) [1]: 1.88 | ELISA signal normalized relative to the background signal [2]: 0.96 fold of background | ELISA signal normalized relative to the background signal [3]: 0.97 fold of background | ELISA signal normalized relative to the background signal [4]: 0.96 fold of background | ELISA signal normalized relative to the background signal [5]: 0.86 fold of background | ELISA signal normalized relative to the background signal [6]: 0.88 fold of background | ELISA signal normalized relative to the background signal [7]: 0.93 fold of background | ELISA signal normalized relative to the background signal [8]: 0.97 fold of background | ELISA signal normalized relative to the background signal [9]: 1.06 fold of background | ELISA signal normalized relative to the background signal [10]: 1.08 fold of background | ELISA signal normalized relative to the background signal [11]: 0.8 fold of background | ELISA signal normalized relative to the background signal [12]: 0.88 fold of background | ELISA signal normalized relative to the background signal [13]: 0.88 fold of background | ELISA signal normalized relative to the background signal [14]: 1 fold of background | ELISA signal normalized relative to the background signal [15]: 1.11 fold of background | ELISA signal normalized relative to the background signal [16]: 4 fold of background | ELISA signal normalized relative to the background signal [17]: 3.13 fold of background | ELISA signal normalized relative to the background signal [18]: 4.95 fold of background | ELISA signal normalized relative to the background signal [19]: 1.05 fold of background
